Blank lines part the entries; values can stand above or below the binder they belong to.
Key:
[1] = biological target: Transferrin Receptor 1 (TfR1/CD71) on human colorectal cancer cells (HT29: high expression); LOVO: low … (human (endogenous in HT29 and LOVO), UniProt P02786 1-760); assay: cell-based or functional assay
[2] = biological target: T1, Recombinant human TfR1-Fc protein (TFR-H5264, Acro Biosystems) (human, UniProt P02786 101-760); assay: SPR; Biacore 8K; recombinant human TfR1-Fc immobilized on the sensor chip; TR01 at 62.5–1,000 nM; as printed: 'acidic conditions (pH 2.0) using a running buffer containing TfR1 at 30 μg/mL'; global fit of association and dissociation curves; conditions: both partners purified
T1 construct: Transferrin receptor 1 (TfR1/CD71), human; As recalled, the supplier's TfR1 constructs hold the extracellular part (about Cys89-Phe760); source: bought: Acro Biosystems
T1 sequence (P02786 101-760): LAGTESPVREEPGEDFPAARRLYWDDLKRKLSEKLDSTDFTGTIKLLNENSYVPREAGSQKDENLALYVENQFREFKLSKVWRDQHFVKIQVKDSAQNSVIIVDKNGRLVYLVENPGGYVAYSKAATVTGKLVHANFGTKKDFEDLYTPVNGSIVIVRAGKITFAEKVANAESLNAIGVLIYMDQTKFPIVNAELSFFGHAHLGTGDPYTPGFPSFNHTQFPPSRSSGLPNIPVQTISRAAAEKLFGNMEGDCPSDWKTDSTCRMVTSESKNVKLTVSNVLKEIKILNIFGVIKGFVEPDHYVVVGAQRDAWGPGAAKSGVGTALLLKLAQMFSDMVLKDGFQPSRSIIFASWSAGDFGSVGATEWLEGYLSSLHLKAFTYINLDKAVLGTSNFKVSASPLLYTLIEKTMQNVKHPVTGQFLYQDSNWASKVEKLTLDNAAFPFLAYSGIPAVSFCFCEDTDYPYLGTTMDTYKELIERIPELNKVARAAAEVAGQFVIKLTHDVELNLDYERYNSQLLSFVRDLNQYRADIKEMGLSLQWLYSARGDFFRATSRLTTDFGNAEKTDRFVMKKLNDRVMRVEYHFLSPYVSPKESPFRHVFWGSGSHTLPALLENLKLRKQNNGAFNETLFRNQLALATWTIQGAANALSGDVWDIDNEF

Chain of Transferrin Receptor 1 (TfR1/CD71) on human colorectal cancer cells (HT29: high expression); LOVO: low … (P02786 whole entry): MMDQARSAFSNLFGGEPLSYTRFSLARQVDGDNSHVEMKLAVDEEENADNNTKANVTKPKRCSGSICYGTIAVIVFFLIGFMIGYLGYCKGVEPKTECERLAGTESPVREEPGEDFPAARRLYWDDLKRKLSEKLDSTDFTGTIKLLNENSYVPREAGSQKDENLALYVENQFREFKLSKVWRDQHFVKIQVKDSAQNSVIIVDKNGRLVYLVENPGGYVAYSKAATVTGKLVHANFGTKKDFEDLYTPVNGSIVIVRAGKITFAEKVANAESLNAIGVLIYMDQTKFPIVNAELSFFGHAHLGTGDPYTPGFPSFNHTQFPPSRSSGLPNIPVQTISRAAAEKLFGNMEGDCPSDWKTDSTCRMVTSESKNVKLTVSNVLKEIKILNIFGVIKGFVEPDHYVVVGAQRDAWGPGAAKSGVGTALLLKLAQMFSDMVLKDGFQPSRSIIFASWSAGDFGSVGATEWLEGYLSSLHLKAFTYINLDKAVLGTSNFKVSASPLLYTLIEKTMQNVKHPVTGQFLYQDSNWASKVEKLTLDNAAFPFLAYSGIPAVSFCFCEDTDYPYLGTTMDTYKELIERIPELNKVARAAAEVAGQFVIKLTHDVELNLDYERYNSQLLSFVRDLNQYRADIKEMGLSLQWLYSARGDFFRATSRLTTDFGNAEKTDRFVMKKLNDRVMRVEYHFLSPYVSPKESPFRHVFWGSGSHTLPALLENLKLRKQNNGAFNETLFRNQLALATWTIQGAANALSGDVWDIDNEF

biodistribution: tumor-to-muscle (T/M) ratio in HT29 tumor-bearing mice, 30 to 120 min postinjection (3.73, 5.10, 9.18) [1]: 9.18 | biodistribution: tumor-to-muscle (T/M) ratio in LOVO-bearing mice (low TfR1), 30 to 120 min postinjection (2.30, 3.16, 5.01) [1]: 5.01 | tumor-to-muscle (T/M) ratio in HT29 xenografts by micro-PET/CT with coinjection of excess unlabeled NOTA-TR01, 30 to 120 min (0.47, 0.45, 0.86) [1]: 0.86 | tumor-to-muscle (T/M) ratio in HT29 xenografts by micro-PET/CT, 30 to 120 min postinjection (2.79, 3.98, 7.88) [1]: 7.88 | tumor-to-muscle (T/M) ratio in LOVO xenografts (low TfR1) by micro-PET/CT, 30 to 120 min postinjection (1.65, 2.30, 2.94) [1]: 2.94
B1: ^68Ga-NOTA-TR01 (peptide)
peptide: AVFVWNYYIIRRYYCK
modifications: cyclo(Ac-Ala1 ... Cys15) as printed; N-terminal Ac; NMe-Tyr at position 14; PEG12 between Cys15 and the C-terminal Lys; NOTA on the Lys, holding ^68Ga

Kd [2]: 22.3 nM | koff [2]: 0.00173 s⁻¹ | kon [2]: 77300 M⁻¹ s⁻¹
B2: NOTA-TR01 [cyclo(Ac-Ala-Val-Phe-Val-Trp-Asn-Tyr-Tyr-Ile-Ile-Arg-Arg-Tyr-NMe-Tyr-Cys)-PEG12-Lys-NOTA] (peptide)
peptide: AVFVWNYYIIRRYYCK
modifications: cyclo(Ac-Ala1 ... Cys15) as printed; N-terminal Ac; NMe-Tyr at position 14; PEG12 between Cys15 and the C-terminal Lys; NOTA on the Lys
notes: the 15-residue macrocycle, printed in three-letter code; position 14 is N-methyl-Tyr; C-terminal Lys that carries NOTA; joined to Cys15 through a PEG12 spacer (no amino acids); a thioether from an N-terminal chloroacetyl group is only surmised; also called unlabeled TR01; unlabeled NOTA-TR01; source: synthetic peptide, custom synthesized by A+ Peptide (Shanghai, China), >95% purity
